{
  "source": "patent US20130004493",
  "proteins": {"B1": {"name": "Focal adhesion kinase (FAK), human (protein)", "chain": "AAAYLDPNLNHTPNSSTKTHLGTGMERSPGAMERVLKVFHYFESNSEPTTWASIIRHGDATDVRGIIQKIVDSHKVKHVACYGFRLSHLRSEEVHWLHVDMGVSSVREKYELAHPPEEWKYELRIRYLPKGFLNQFTEDKPTLNFFYQQVKSDYMLEIADQVDQEIALKLGCLEIRRSYWEMRGNALEKKSNYEVLEKDVGLKRFFPKSLLDSVKAKTLRKLIQQTFRQFANLNREESILKFFEILSPVYRFDKECFKCALGSSWIISVELAIGPEEGISYLTDKGCNPTHLADFTQVQTIQYSNSEDKDRKGMLQLKIAGAPEPLTVTAPSLTIAENMADLIDGYCRLVNGTSQSFIIRPQKEGERALPSIPKLANSEKQGMRTHAVSVSETDDYAEIIDEEDTYTMPSTRDYEIQRERIELGRCIGEGQFGDVHQGIYMSPENPALAVAIKTCKNCTSDSVREKFLQEALTMRQFDHPHIVKLIGVITENPVWIIMELCTLGELRSFLQVRKYSLDLASLILYAYQLSTALAYLESKRFVHRDIAARNVLVSSNDCVKLGDFGLSRYMEDSTYYKASKGKLPIKWMAPESINFRRFTSASDVWMFGVCMWEILMHGVKPFQGVKNNDVIGRIENGERLPMPPNCPPTLYSLMTKCWAYDPSRRPRFTELKAQLSTILEEEKAQQEERMRMESRRQATVSWDSGGSDEAPPKPSRPGYPSPRSSEGFYPSPQHMVQTNHYQVSGYPGSHGITAMAGSIYPGQASLLDQTDSWNHRPQEIAMWQPNVEDSTVLDLRGIGQVLPTHLMEERLIRQQQEMEEDQRWLEKEERFLKPDVRLSRGSIDREDGSLQGPIGNQHIYQPVGKPDPAAPPKKPPRPGAPGHLGSLASLSSPADSYNEGVKLQPQEISPPPTANLDRSNDKVYENVTGLVKAVIEMSSKIQPAPPEEYVPMVKEVGLALRTLLATVDETIPLLPASTHREIEMAQKLLNSDLGELINKMKLAQQYVMTSLQQEYKKQMLTAAHALAVDAKNLLDVIDQARLKMLGQTRPH"}},
  "biological_target": "T1, Epithelial membrane protein 2 (EMP2), human, P54851",
  "T1 chain": "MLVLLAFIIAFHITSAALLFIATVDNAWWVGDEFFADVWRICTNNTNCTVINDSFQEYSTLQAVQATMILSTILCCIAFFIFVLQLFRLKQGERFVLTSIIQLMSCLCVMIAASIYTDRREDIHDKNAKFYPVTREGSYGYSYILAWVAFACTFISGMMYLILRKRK",
  "data": [
    {"protein": "B1", "values": [
      {"measurement": "phosphorylation of FAK at Tyr-397, Tyr-407, Tyr-861 and Tyr-925 (quantitative Western blot, ARPE-19/EMP2 against ARPE-19)", "value": "EMP2 overexpression enhanced phosphorylation of FAK two- to three-fold at Tyr-397, Tyr-407, Tyr-861, and Tyr-925"}
    ]}
  ]
}
